# Test results reported in article PMC10055104, “Organic Anion Transporting Polypeptide 3A1 (OATP3A1)-Gated Bio-Orthogonal Labeling of Intracellular Proteins” (Molecules, 2023).
# T1: OATP3A1 (Homo sapiens, UniProt Q9UIG8)
# T1 construct: gene SLCO3A1; full-length transporter overexpressed in HEK-293 cells by recombinant lentivirus
# T1 sequence (Q9UIG8 1-710): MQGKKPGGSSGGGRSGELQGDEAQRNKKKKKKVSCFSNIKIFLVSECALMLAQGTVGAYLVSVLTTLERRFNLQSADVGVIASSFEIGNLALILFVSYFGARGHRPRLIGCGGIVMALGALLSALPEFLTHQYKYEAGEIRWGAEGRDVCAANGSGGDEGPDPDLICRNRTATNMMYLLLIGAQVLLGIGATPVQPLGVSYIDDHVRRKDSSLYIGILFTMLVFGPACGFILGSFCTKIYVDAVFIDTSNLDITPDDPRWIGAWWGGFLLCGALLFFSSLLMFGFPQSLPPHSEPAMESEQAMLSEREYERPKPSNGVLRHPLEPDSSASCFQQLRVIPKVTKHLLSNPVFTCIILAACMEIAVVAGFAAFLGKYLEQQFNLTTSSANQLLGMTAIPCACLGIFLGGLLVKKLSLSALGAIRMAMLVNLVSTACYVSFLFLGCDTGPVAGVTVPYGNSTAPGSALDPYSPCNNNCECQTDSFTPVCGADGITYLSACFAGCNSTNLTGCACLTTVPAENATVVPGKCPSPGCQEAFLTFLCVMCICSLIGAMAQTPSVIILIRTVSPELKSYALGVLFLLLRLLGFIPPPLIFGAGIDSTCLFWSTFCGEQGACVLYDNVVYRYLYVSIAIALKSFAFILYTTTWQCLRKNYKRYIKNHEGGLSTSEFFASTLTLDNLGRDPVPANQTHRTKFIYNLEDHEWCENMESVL
# Assays:
# OATP3A1 = target: T1, OATP3A1; assay: inhibition of CBRD2-BAT and CBRD4-BAT ([…]) uptake, flow cytometry; format: cell-based; settings: Uptake buffer pH 5.5, 37 °C, 15 min preincubation with inhibitor
# [1] = substrate: CCN(CC)c1ccc2cc(/C=C/c3cc[n+](CCCCCC(=O)NCc4ccc(-c5nncnn5)cc4)cc3S(=O)(=O)[O-])c(=O)oc2c1; assay: flow cytometry uptake into HEK-293-OATP3A1 cells, normalised to mock cells, Michaelis-Menten fit; format: cell-based, Homo sapiens; settings: Uptake buffer pH 5.5, 37 °C, 15 min, transport
# [2] = substrate: CN(C)c1ccc(/C=C/c2cc[n+](CCCCCC(=O)NCc3ccc(-c4nncnn4)cc3)cc2S(=O)(=O)[O-])cc1; assay: as above; format: cell-based, Homo sapiens; settings: Uptake buffer pH 5.5, 37 °C, 15 min, transport
Molecule,% decrease of transport at 20 μM (OATP3A1),Km [1],Km [2]
CCc1oc2ccccc2c1C(=O)c1cc(Br)c(O)c(Br)c1 [benzbromarone],~ 90%,,
"OATP3A1 (Homo sapiens) (protein, full-length transporter overexpressed in HEK-293 cells by recombinant lentivirus) MQGKKPGGSSGGGRSGELQGDEAQRNKKKKKKVSCFSNIKIFLVSECALMLAQGTVGAYLVSVLTTLERRFNLQSADVGVIASSFEIGNLALILFVSYFGARGHRPRLIGCGGIVMALGALLSALPEFLTHQYKYEAGEIRWGAEGRDVCAANGSGGDEGPDPDLICRNRTATNMMYLLLIGAQVLLGIGATPVQPLGVSYIDDHVRRKDSSLYIGILFTMLVFGPACGFILGSFCTKIYVDAVFIDTSNLDITPDDPRWIGAWWGGFLLCGALLFFSSLLMFGFPQSLPPHSEPAMESEQAMLSEREYERPKPSNGVLRHPLEPDSSASCFQQLRVIPKVTKHLLSNPVFTCIILAACMEIAVVAGFAAFLGKYLEQQFNLTTSSANQLLGMTAIPCACLGIFLGGLLVKKLSLSALGAIRMAMLVNLVSTACYVSFLFLGCDTGPVAGVTVPYGNSTAPGSALDPYSPCNNNCECQTDSFTPVCGADGITYLSACFAGCNSTNLTGCACLTTVPAENATVVPGKCPSPGCQEAFLTFLCVMCICSLIGAMAQTPSVIILIRTVSPELKSYALGVLFLLLRLLGFIPPPLIFGAGIDSTCLFWSTFCGEQGACVLYDNVVYRYLYVSIAIALKSFAFILYTTTWQCLRKNYKRYIKNHEGGLSTSEFFASTLTLDNLGRDPVPANQTHRTKFIYNLEDHEWCENMESVL",,7.2 µM,45 µM
